Experimental data taken from the supplement of paper PMC9732359.
± gives the uncertainty stated by the source.

Assay: protein stability index of a GFP-peptide fusion (yeast GPS) (PSI 1-4); higher = more stable; sorted into four equal gates, so the index is relative within each strain
In short: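 Sequencing reads from sorted gates were used to score each peptide. The library consisted of tiled 17-residue yeast protein peptides fused downstream of GFP on a Cherry-expressing plasmid, pooled and carried in yeast. Mid-log cultures in leucine-free medium were split into four equal gates by GFP/Cherry ratio, and each gate's plasmids were PCR-amplified and Illumina-sequenced. The protein stability index adds up, over all gates, the read frequency multiplied by the gate number.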

FPSIPLPINGPITNKER [RPC31]
protein stability index (doa10∆): 2.23 ± 0.058
protein stability index (pdr5∆): 2.37 ± 0.064
protein stability index (san1∆): 2.17 ± 0.082
protein stability index (ubr1∆): 2.56 ± 0.11

TTARNDLGVVFARAANG [CSL4]
protein stability index (doa10∆): 1.87 ± 0.056
protein stability index (pdr5∆): 2.02 ± 0.12
protein stability index (san1∆): 1.87 ± 0.14
protein stability index (ubr1∆): 2.39 ± 0.048

RALSIFSPDGHIFQVEY [PRE6]
protein stability index (doa10∆): 2.97 ± 0.051
protein stability index (pdr5∆): 2.98 ± 0.05
protein stability index (san1∆): 3.04 ± 0.032
protein stability index (ubr1∆): 3.1 ± 0.032

EAAAVRDLSEASVYPEY [RPS26A]
protein stability index (doa10∆): 2.25 ± 0.076
protein stability index (pdr5∆): 2.53 ± 0.082
protein stability index (san1∆): 2.65 ± 0.076
protein stability index (ubr1∆): 2.93 ± 0.09

KEAVFKSLGVKSLGGGA [FAS2]
protein stability index (doa10∆): 3.26 ± 0.078
protein stability index (pdr5∆): 3.36 ± 0.12
protein stability index (san1∆): 3.25 ± 0.069
protein stability index (ubr1∆): 3.41 ± 0.092

LNISGEFFRNKLKYHDF [RPL16A]
protein stability index (doa10∆): 1.32 ± 0.13
protein stability index (ubr1∆): 1.12 ± 0.1

ETAERNIIQAKRDAKAA [RPL7A]
protein stability index (pdr5∆): 2.06 ± 0.21
protein stability index (san1∆): 1.93 ± 0.16

IKNIGKSLKNNFYRPLL [YML103C/NUP188]
protein stability index (doa10∆): 2.6 ± 0.08
protein stability index (pdr5∆): 2.62 ± 0.1
protein stability index (san1∆): 2.7 ± 0.079
protein stability index (ubr1∆): 2.77 ± 0.078

SASLFKQRKNPRRIAWT [RPL24A]
protein stability index (doa10∆): 2.55 ± 0.11
protein stability index (pdr5∆): 2.9 ± 0.097
protein stability index (san1∆): 2.96 ± 0.087
protein stability index (ubr1∆): 3.08 ± 0.059

RQDGSYTYHSTNKDNKA [ARP9]
protein stability index (doa10∆): 2.67 ± 0.062
protein stability index (pdr5∆): 2.97 ± 0.067
protein stability index (san1∆): 2.88 ± 0.044
protein stability index (ubr1∆): 2.64 ± 0.056

VPVKLEEIKTVDPASAP [RRP6]
protein stability index (doa10∆): 2.83 ± 0.13
protein stability index (pdr5∆): 2.56 ± 0.16
protein stability index (san1∆): 2.87 ± 0.17
protein stability index (ubr1∆): 2.79 ± 0.11

KLQFETDRLSTTQRRYE [SMC1]
protein stability index (doa10∆): 3.13 ± 0.094
protein stability index (pdr5∆): 3.3 ± 0.058
protein stability index (san1∆): 3.12 ± 0.086
protein stability index (ubr1∆): 3.12 ± 0.083

NNPKIQTKDSVKEIVLP [IRR1]
protein stability index (doa10∆): 3.17 ± 0.07
protein stability index (pdr5∆): 2.94 ± 0.077
protein stability index (san1∆): 3 ± 0.059
protein stability index (ubr1∆): 3.11 ± 0.051

KPALGSLGSSSTTASGT [YGR119C/NUP57]
protein stability index (doa10∆): 3.22 ± 0.085
protein stability index (pdr5∆): 3.3 ± 0.084
protein stability index (san1∆): 3.05 ± 0.062
protein stability index (ubr1∆): 3.06 ± 0.1

TGHPKGAAGAWMMNGAL [FAS2]
protein stability index (doa10∆): 1.98 ± 0.069
protein stability index (pdr5∆): 1.5 ± 0.052
protein stability index (san1∆): 1.43 ± 0.12
protein stability index (ubr1∆): 1.66 ± 0.052

SIGSDILTAEKMRGNGN [RRP4]
protein stability index (doa10∆): 3.21 ± 0.097
protein stability index (pdr5∆): 3.39 ± 0.09
protein stability index (san1∆): 3.38 ± 0.05
protein stability index (ubr1∆): 3.32 ± 0.062

SKQVTDYYQSIYAKYGA [FAS2]
protein stability index (doa10∆): 2.73 ± 0.051
protein stability index (pdr5∆): 2.67 ± 0.052
protein stability index (san1∆): 2.54 ± 0.057
protein stability index (ubr1∆): 2.77 ± 0.041

VGKYDKAIELLEKALQG [SRP72]
protein stability index (pdr5∆): 1.66 ± 0.17
protein stability index (ubr1∆): 1.18 ± 0.22

FTKYKPARSSSLRSNVV [YAR002W/NUP60]
protein stability index (doa10∆): 1.79 ± 0.046
protein stability index (pdr5∆): 2.44 ± 0.045
protein stability index (san1∆): 2.17 ± 0.07
protein stability index (ubr1∆): 2.7 ± 0.04

FNTEAEQTVSAVTEATS [RGR1]
protein stability index (doa10∆): 2.67 ± 0.28
protein stability index (pdr5∆): 3.41 ± 0.15

SSFGSESLTFNEFQLQW [SWI1]
protein stability index (doa10∆): 2.98 ± 0.066
protein stability index (pdr5∆): 2.84 ± 0.056
protein stability index (san1∆): 2.56 ± 0.054
protein stability index (ubr1∆): 3.02 ± 0.046

TPIIFIGTGEHIHDLEK [SRP54]
protein stability index (doa10∆): 1.94 ± 0.071
protein stability index (pdr5∆): 2.42 ± 0.063
protein stability index (san1∆): 2.76 ± 0.068
protein stability index (ubr1∆): 2.45 ± 0.056

PSLKAHFTEIKLNKVDK [SIR3]
protein stability index (doa10∆): 2.31 ± 0.061
protein stability index (pdr5∆): 2.13 ± 0.065
protein stability index (san1∆): 2.35 ± 0.065
protein stability index (ubr1∆): 2.08 ± 0.082

PCVEDGFVIQDRETALD [RPB2]
protein stability index (doa10∆): 3.17 ± 0.088
protein stability index (pdr5∆): 3.18 ± 0.11
protein stability index (san1∆): 3.16 ± 0.19
protein stability index (ubr1∆): 3.2 ± 0.078

IMAKRPFDKKSNSALFR [FAS1]
protein stability index (doa10∆): 2.84 ± 0.059
protein stability index (pdr5∆): 2.9 ± 0.062
protein stability index (san1∆): 2.87 ± 0.046
protein stability index (ubr1∆): 2.89 ± 0.05

LSTRAGGLGLNLQTADT [SNF2]
protein stability index (doa10∆): 2.75 ± 0.084
protein stability index (pdr5∆): 2.7 ± 0.068
protein stability index (san1∆): 2.7 ± 0.076
protein stability index (ubr1∆): 3.2 ± 0.058

NRDPVKHAEFDLSLLGY [SIR2]
protein stability index (pdr5∆): 2.75 ± 0.21

PEMSNLYRLSTPLRDEV [PRP8]
protein stability index (doa10∆): 2.76 ± 0.067
protein stability index (pdr5∆): 2.76 ± 0.047
protein stability index (san1∆): 2.56 ± 0.044
protein stability index (ubr1∆): 2.75 ± 0.06

NIIESIANFSRAGKYEL [YJR042W/NUP85]
protein stability index (doa10∆): 2.86 ± 0.087
protein stability index (pdr5∆): 2.96 ± 0.086
protein stability index (san1∆): 2.87 ± 0.051
protein stability index (ubr1∆): 2.44 ± 0.042

DDVVVLTGEAEIEQPVT [FAS1]
protein stability index (doa10∆): 3.47 ± 0.12
protein stability index (pdr5∆): 3.27 ± 0.12
protein stability index (san1∆): 2.85 ± 0.13
protein stability index (ubr1∆): 2.98 ± 0.099

PKMGVSSSSLECATCHG [RPO31]
protein stability index (doa10∆): 2.97 ± 0.085
protein stability index (pdr5∆): 3.34 ± 0.049
protein stability index (san1∆): 3.32 ± 0.097
protein stability index (ubr1∆): 3.2 ± 0.056

SIPNLFPTDLEIFQLFT [SWI1]
protein stability index (doa10∆): 2.6 ± 0.14
protein stability index (pdr5∆): 2.22 ± 0.12
protein stability index (san1∆): 2.27 ± 0.12
protein stability index (ubr1∆): 3.09 ± 0.19

MARTKQTARKSTGGKAP [HHT1]
protein stability index (doa10∆): 3.31 ± 0.12
protein stability index (pdr5∆): 3.25 ± 0.11
protein stability index (san1∆): 3.04 ± 0.1
protein stability index (ubr1∆): 3.39 ± 0.092

QNNLPPNFFLTLISENW [BRR2]
protein stability index (doa10∆): 2.94 ± 0.073
protein stability index (pdr5∆): 3.13 ± 0.069
protein stability index (san1∆): 2.91 ± 0.071
protein stability index (ubr1∆): 2.94 ± 0.072

PGHVNFMDETAVALAAS [SNU114]
protein stability index (doa10∆): 2.4 ± 0.062
protein stability index (pdr5∆): 2.7 ± 0.1
protein stability index (san1∆): 2.29 ± 0.073
protein stability index (ubr1∆): 2.34 ± 0.066

NVKTSVSQLYRISEKSV [RPO31]
protein stability index (doa10∆): 3.04 ± 0.11
protein stability index (pdr5∆): 3.22 ± 0.1
protein stability index (san1∆): 3.12 ± 0.076
protein stability index (ubr1∆): 3.16 ± 0.083

KTITSGLKYALATGNWG [RPB2]
protein stability index (doa10∆): 2.32 ± 0.066
protein stability index (pdr5∆): 2.33 ± 0.056
protein stability index (san1∆): 2.19 ± 0.079
protein stability index (ubr1∆): 2.31 ± 0.048

QLTPQQQQLVNQMKVAP [GAL11]
protein stability index (doa10∆): 2.8 ± 0.061
protein stability index (pdr5∆): 2.98 ± 0.058
protein stability index (san1∆): 3.01 ± 0.061
protein stability index (ubr1∆): 2.79 ± 0.049

YVLSTAVEFESVPLRKG [BRR2]
protein stability index (doa10∆): 1.7 ± 0.043
protein stability index (pdr5∆): 1.45 ± 0.04
protein stability index (san1∆): 1.93 ± 0.083
protein stability index (ubr1∆): 1.34 ± 0.036

STNGLGMCQLYFWHKIW [SNU114]
protein stability index (pdr5∆): 1.24 ± 0.24
protein stability index (san1∆): 2.56 ± 0.21

DSSSNTYRSRAQQVPPY [SIN4]
protein stability index (doa10∆): 2.89 ± 0.097
protein stability index (pdr5∆): 2.88 ± 0.17
protein stability index (san1∆): 3.15 ± 0.062
protein stability index (ubr1∆): 1.61 ± 0.11

ISNLTQEQVQDYVNKTN [FAS1]
protein stability index (doa10∆): 2.34 ± 0.047
protein stability index (pdr5∆): 2.81 ± 0.043
protein stability index (san1∆): 2.82 ± 0.057
protein stability index (ubr1∆): 2.27 ± 0.033

EIEQPVTTFVFTGQGSQ [FAS1]
protein stability index (doa10∆): 2.86 ± 0.1
protein stability index (pdr5∆): 2.91 ± 0.075
protein stability index (san1∆): 2.49 ± 0.14
protein stability index (ubr1∆): 2.24 ± 0.066

RENIAMLKRFFPGVKGL [SMC1]
protein stability index (doa10∆): 2.5 ± 0.17
protein stability index (pdr5∆): 2.49 ± 0.2
protein stability index (san1∆): 2.01 ± 0.13
protein stability index (ubr1∆): 2.43 ± 0.15

REKRAREKAEAEAEKKK [RPL13A]
protein stability index (pdr5∆): 3.62 ± 0.13
protein stability index (san1∆): 3.31 ± 0.061

FLQRVRVWEYRQKNVIH [RPL15A]
protein stability index (doa10∆): 1.77 ± 0.24
protein stability index (pdr5∆): 1.72 ± 0.085
protein stability index (ubr1∆): 2.02 ± 0.19

ISLYFNDILDELLCGMA [ECM29]
protein stability index (doa10∆): 1.64 ± 0.1
protein stability index (pdr5∆): 1.81 ± 0.069
protein stability index (san1∆): 2.04 ± 0.18
protein stability index (ubr1∆): 1.48 ± 0.06

NLPPHYALFLKALRRKI [SSN2]
protein stability index (doa10∆): 2.15 ± 0.11
protein stability index (pdr5∆): 1.79 ± 0.095
protein stability index (san1∆): 2.8 ± 0.22
protein stability index (ubr1∆): 1.7 ± 0.087

QPQHPHYVSTSKISQMA [YLR018C/POM34]
protein stability index (doa10∆): 1.71 ± 0.037
protein stability index (pdr5∆): 2.17 ± 0.04
protein stability index (san1∆): 2.34 ± 0.048
protein stability index (ubr1∆): 2.19 ± 0.026

TSDLVKSLGLKLPLSVI [RPS17A]
protein stability index (doa10∆): 1.12 ± 0.07
protein stability index (pdr5∆): 1.52 ± 0.078
protein stability index (san1∆): 1.86 ± 0.16
protein stability index (ubr1∆): 1.95 ± 0.091

LWDIMGDRQRLGEEHPL [RPT1]
protein stability index (san1∆): 3.31 ± 0.23

NIYDQLRNKLIESNKLA [RRP6]
protein stability index (doa10∆): 2.34 ± 0.073
protein stability index (pdr5∆): 2.45 ± 0.084
protein stability index (san1∆): 1.9 ± 0.09
protein stability index (ubr1∆): 2.22 ± 0.073

LNAINNAEKTGKRQVLI [RPS22A]
protein stability index (pdr5∆): 2.3 ± 0.26

VDPRIINSENDYSRKQL [NUT1]
protein stability index (doa10∆): 3.06 ± 0.072
protein stability index (pdr5∆): 3.38 ± 0.072
protein stability index (san1∆): 2.78 ± 0.082
protein stability index (ubr1∆): 3.06 ± 0.056

ALENDVATNIVNEDPIF [YML103C/NUP188]
protein stability index (doa10∆): 2.94 ± 0.051
protein stability index (pdr5∆): 3.1 ± 0.068
protein stability index (san1∆): 3.04 ± 0.052
protein stability index (ubr1∆): 3.05 ± 0.048

ARIALRHLEKEGIIKPI [RPS25A]
protein stability index (doa10∆): 2.98 ± 0.092
protein stability index (pdr5∆): 3.37 ± 0.16
protein stability index (san1∆): 3.06 ± 0.094
protein stability index (ubr1∆): 3.12 ± 0.085
